From the supplement of paper PMC10724198
± gives the standard deviation of the averaged measurements.

What follows are sequences tested on Saccharomyces cerevisiae (assay: protein stability index of tFT-peptide fusion (C-terminal peptide) (PSI (0-1 scale)); higher = more stable (slower turnover)). Settings: genetic background: wild type; temperature: 30 C.
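Note: PSI is a weighted mean of sequencing reads over stability bins, variants kept only with over 10 reads, mCherry proximal and sfGFP distal, peptide attached via GGGS linker.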

| Sequence | protein stability index |
| --- | --- |
| PPLRLASSPPPV | 0.736 ± 0.062 |
| PPLSCSPPLAPL | 0.695 ± 0.019 |
| PPLSLPSSCPSP | 0.652 ± 0.1 |
| PPLSPLSPLAPP | 0.712 ± 0.038 |
| PPLTPPPPTPPP | 0.635 ± 0.057 |
| PPLTPSPPRSFP | 0.651 ± 0.08 |
| PPNLYRGVQGPA | 0.682 ± 0.0099 |
| PPNPLPPAFTPP | 0.715 ± 0.027 |
| PPNPPPGPTVPF | 0.768 ± 0.084 |
| PPPALEPSPKEL | 0.781 ± 0.057 |
| PPPAPPPAIPHP | 0.687 ± 0.0073 |
| PPPAPPTFPLRS | 0.684 ± 0.087 |
| PPPAPRRTRRPS | 0.698 ± 0.047 |
| PPPARLSLPPPD | 0.694 ± 0.007 |
| PPPASRPPHPTL | 0.746 ± 0.026 |
| PPPFLTPPPPHS | 0.709 ± 0.026 |
| PPPFPLLPRYGF | 0.657 ± 0.066 |
| PPPFPPAPRHPP | 0.614 ± 0.013 |
| PPPFPPPTLPPP | 0.736 ± 0.039 |
| PPPFSPLPPGPP | 0.699 ± 0.0077 |
| PPPGPDGVASNF | 0.685 ± 0.053 |
| PPPHPPRRLLPP | 0.69 ± 0.065 |
| PPPHPRPSPPSP | 0.702 ± 0.048 |
| PPPHRPWSPVPP | 0.7158 ± 0.0034 |
| PPPISTLSSSPS | 0.582 ± 0.059 |
| PPPKAPHSSPNL | 0.675 ± 0.072 |

| Sequence | protein stability index |
| --- | --- |
| PPPLASRLLSFL | 0.713 ± 0.022 |
| PPPLHPRYDPPA | 0.685 ± 0.025 |
| PPPLLAPHPPPP | 0.697 ± 0.01 |
| PPPLLPFPPIPR | 0.697 ± 0.033 |
| PPPLPFPPSPPL | 0.681 ± 0.063 |
| PPPLPLSTPPPL | 0.671 ± 0.014 |
| PPPLPPPPPLPP | 0.589 ± 0.038 |
| PPPLPPPPPPSP | 0.782 ± 0.083 |
| PPPLPPSSPTYS | 0.646 ± 0.11 |
| PPPLPRRPASPL | 0.652 ± 0.014 |
| PPPLPSPPAFRP | 0.635 ± 0.045 |
| PPPLPTPSLPPP | 0.70185 ± 0.00011 |
| PPPLPYKAPRIL | 0.7068 ± 0.0036 |
| PPPLRAPPLSLP | 0.62 ± 0.0068 |
| PPPPAPYRPPSC | 0.682 ± 0.0054 |
| PPPPATRPSPCY | 0.706 ± 0.048 |
| PPPPDHPRSSPV | 0.688 ± 0.037 |
| PPPPDPWTSPRP | 0.734 ± 0.027 |
| PPPPFSPPPPSA | 0.7 ± 0.04 |
| PPPPLLSPPSPP | 0.714 ± 0.015 |
| PPPPLPPIRPYP | 0.719 ± 0.016 |
| PPPPLPPQPPPP | 0.654 ± 0.0073 |
| PPPPLPPTPPPL | 0.673 ± 0.025 |
| PPPPPAPPPQPS | 0.699 ± 0.011 |
| PPPPPFSPLFLP | 0.698 ± 0.12 |
| PPPPPHSSPFRS | 0.694 ± 0.01 |

| Sequence | protein stability index |
| --- | --- |
| PPPPPHTPPPYP | 0.766 ± 0.05 |
| PPPPPIPPPLVP | 0.658 ± 0.012 |
| PPPPPLPPLPTP | 0.693 ± 0.022 |
| PPPPPLPPPSPP | 0.598 ± 0.036 |
| PPPPPLRVPPPP | 0.6753 ± 0.004 |
| PPPPPPAFPPST | 0.716 ± 0.027 |
| PPPPPPLITPPL | 0.666 ± 0.052 |
| PPPPPPLLPSPL | 0.705 ± 0.069 |
| PPPPPPLPPPLP | 0.704 ± 0.056 |
| PPPPPPLPPSPL | 0.634 ± 0.1 |
| PPPPPPPASLLP | 0.755 ± 0.056 |
| PPPPPPPFRPPT | 0.651 ± 0.017 |
| PPPPPPPLPLPP | 0.64 ± 0.011 |
| PPPPPPPLPRSP | 0.721 ± 0.039 |
| PPPPPPPPAPFP | 0.687 ± 0.056 |
| PPPPPPPPPLPR | 0.657 ± 0.039 |
| PPPPPPPPPQPS | 0.67 ± 0.08 |
| PPPPPPPPSPSP | 0.742 ± 0.074 |
| PPPPPPPTPIHP | 0.72 ± 0.01 |
| PPPPPPRPFPPP | 0.66 ± 0.085 |
| PPPPPPSVLSPP | 0.722 ± 0.061 |
| PPPPPPTPPPCL | 0.694 ± 0.057 |
| PPPPPRFSPHPP | 0.695 ± 0.013 |
| PPPPPRLPPRPP | 0.6152 ± 0.0052 |
| PPPPPRPPLSPP | 0.725 ± 0.03 |
| PPPPPSLACPPP | 0.688 ± 0.037 |

| Sequence | protein stability index |
| --- | --- |
| PPPPPSPPLSPI | 0.728 ± 0.063 |
| PPPPRAISPLLP | 0.666 ± 0.031 |
| PPPPRPLKLFPP | 0.588 ± 0.014 |
| PPPPRPLPPAPP | 0.63 ± 0.075 |
| PPPPRPPHLSPP | 0.7006 ± 0.0067 |
| PPPPRPPRPYSV | 0.767 ± 0.27 |
| PPPPRPSPSIYP | 0.732 ± 0.018 |
| PPPPRRPPPAPF | 0.6935 ± 0.0022 |
| PPPPRSLPLLPP | 0.67 ± 0.073 |
| PPPPSPRLSHSP | 0.646 ± 0.018 |
| PPPPYPPHPPSA | 0.712 ± 0.027 |
| PPPQDPTRRRRP | 0.7116 ± 0.0054 |
| PPPQPPPRHSPP | 0.676 ± 0.031 |
| PPPQSFLPRPPH | 0.713 ± 0.0062 |
| PPPRLPTSPDSP | 0.722 ± 0.061 |
| PPPRLSPTPSSR | 0.721 ± 0.05 |
| PPPRLTVPIPSS | 0.6477 ± 0.0054 |
| PPPRPDLTVGQP | 0.654 ± 0.04 |
| PPPRPLSPPFPF | 0.641 ± 0.05 |
| PPPRPPASLPSL | 0.5833 ± 0.0033 |
| PPPRPPPFPLSC | 0.7134 ± 0.0065 |
| PPPRPPSPPSFL | 0.734 ± 0.041 |
| PPPRRAPLSPSV | 0.669 ± 0.042 |
| PPPRSPLLPSPL | 0.687 ± 0.019 |
| PPPRSPPAPPPP | 0.774 ± 0.052 |
| PPPRSSLRLPSA | 0.652 ± 0.063 |

| Sequence | protein stability index |
| --- | --- |
| PPPRTPPDNHPN | 0.7256 ± 0.0047 |
| PPPSAPLPPSPP | 0.6424 ± 0.0043 |
| PPPSPNPRENPK | 0.671 ± 0.0071 |
| PPPSPPCTPSLI | 0.696 ± 0.036 |
| PPPSPPPSLSLP | 0.702 ± 0.025 |
| PPPSPSPPPAPG | 0.6941 ± 0.006 |
| PPPSPSSPPLSL | 0.717 ± 0.099 |
| PPPSSAPPPTPP | 0.607 ± 0.15 |
| PPPSSPSPPRCR | 0.733 ± 0.1 |
| PPPTSSPSPSIL | 0.741 ± 0.07 |
| PPPVLPSPRSDP | 0.667 ± 0.17 |
| PPPVPPPAPLLS | 0.642 ± 0.074 |
| PPPVPPSPSPPP | 0.684 ± 0.013 |
| PPPWPLPPGRLP | 0.703 ± 0.059 |
| PPPYHPDATFTT | 0.7063 ± 0.0025 |
| PPQPRLTPSPPL | 0.697 ± 0.028 |
| PPRASQSLLAVP | 0.6555 ± 0.0035 |
| PPRATPPFPLPP | 0.648 ± 0.031 |
| PPRLPPLPSSLL | 0.721 ± 0.033 |
| PPRPAPPPPPAL | 0.723 ± 0.11 |
| PPRPHPPPRPSS | 0.74 ± 0.048 |
| PPRPLRAEGLES | 0.727 ± 0.028 |
| PPRPPPLPPSPP | 0.685 ± 0.094 |
| PPRPPPLSPAPP | 0.7 ± 0.069 |
| PPRPPPPPRSTS | 0.672 ± 0.024 |
| PPRPPSPPPPPS | 0.779 ± 0.16 |

| Sequence | protein stability index |
| --- | --- |
| PPRPSPPPPPRS | 0.735 ± 0.09 |
| PPRRLPALPSPL | 0.774 ± 0.014 |
| PPRRSDSQQFSA | 0.676 ± 0.029 |
| PPRSLPPPPFPF | 0.749 ± 0.01 |
| PPRSLPPSPPSP | 0.7384 ± 0.0047 |
| PPRSPPLPPAPT | 0.762 ± 0.013 |
| PPRSPPLPPGLP | 0.558 ± 0.039 |
| PPRSPPPPRLLL | 0.724 ± 0.048 |
| PPRSRPLPALPS | 0.647 ± 0.044 |
| PPRYLCLGPGPC | 0.691 ± 0.03 |
| PPSGGYFSTCPP | 0.731 ± 0.03 |
| PPSKRSKKPFRI | 0.698 ± 0.022 |
| PPSLLFPLPLAS | 0.649 ± 0.11 |
| PPSLPPPPPVHP | 0.648 ± 0.034 |
| PPSLPRFTPRPA | 0.718 ± 0.036 |
| PPSLPSVRLSLS | 0.685 ± 0.027 |
| PPSLRPSSSPPI | 0.724 ± 0.022 |
| PPSLSPFSACLS | 0.669 ± 0.064 |
| PPSNPLTRAQCL | 0.737 ± 0.14 |
| PPSPDPPPPDLS | 0.649 ± 0.017 |
| PPSPEPGSPHRF | 0.734 ± 0.018 |
| PPSPHLVPYYLP | 0.677 ± 0.014 |
| PPSPLLVTLPPA | 0.704 ± 0.022 |
| PPSPPFDFSPQN | 0.716 ± 0.014 |
| PPSPPHPIRPPA | 0.713 ± 0.025 |
| PPSPPIPPPPAP | 0.732 ± 0.053 |

| Sequence | protein stability index |
| --- | --- |
| PPSPPPGTCPPD | 0.617 ± 0.064 |
| PPSPPPPAPPRA | 0.713 ± 0.023 |
| PPSPPPPLSLSP | 0.6853 ± 0.0033 |
| PPSPPPPPPPPL | 0.7 ± 0.032 |
| PPSPSNPNPLRP | 0.726 ± 0.019 |
| PPSPSSLLFLLS | 0.7043 ± 0.0028 |
| PPSPTPPALPAP | 0.688 ± 0.018 |
| PPSRPLPFLLPH | 0.696 ± 0.0091 |
| PPSSDRPSIILP | 0.691 ± 0.081 |
| PPSSPPSVLPPV | 0.666 ± 0.021 |
| PPSSTAALPPLP | 0.609 ± 0.066 |
| PPSVTLSEMTTG | 0.642 ± 0.025 |
| PPSWASLRLPPT | 0.708 ± 0.072 |
| PPTFPPLLSPPP | 0.661 ± 0.025 |
| PPTIPLRTLPTS | 0.703 ± 0.018 |
| PPTPKHTPHDTT | 0.694 ± 0.031 |
| PPTPLAASPRPS | 0.722 ± 0.12 |
| PPTPPSLPPLSP | 0.665 ± 0.086 |
| PPTPPTSHPSPR | 0.696 ± 0.027 |
| PPTPTPPHPPPP | 0.611 ± 0.015 |
| PPVKQKEKGTAT | 0.701 ± 0.021 |
| PPVPPPPRLPRP | 0.727 ± 0.019 |
| PPWPPLVQPVSL | 0.708 ± 0.066 |
| PPYRVVLPLFVP | 0.508 ± 0.033 |
| PPYSQPSSTPPH | 0.706 ± 0.092 |
| PQDRGICQIIES | 0.632 ± 0.017 |

| Sequence | protein stability index |
| --- | --- |
| PQDYITTCQHPT | 0.651 ± 0.079 |
| PQFRHFWALSTT | 0.707 ± 0.015 |
| PQPLFLPSPLSR | 0.702 ± 0.06 |
| PQPLYAPFPPPL | 0.789 ± 0.096 |
| PQPPPPPPLSVS | 0.673 ± 0.0087 |
| PQPPRPARLCFP | 0.705 ± 0.028 |
| PQRTPPRPNKPP | 0.556 ± 0.013 |
| PQSCNILRGLES | 0.708 ± 0.056 |
| PRACPSSPASSL | 0.722 ± 0.024 |
| PRALPSPPPPPP | 0.661 ± 0.13 |
| PRAPHATGYNRR | 0.7016 ± 0.0069 |
| PRAPPLPPSPSP | 0.668 ± 0.011 |
| PRARHSVPNIQS | 0.694 ± 0.042 |
| PRGAVGSRPAGR | 0.677 ± 0.034 |
| PRGTFARSRSTG | 0.7156 ± 0.0027 |
| PRGYRGNCAYDV | 0.636 ± 0.083 |
| PRHPPTHLIPKT | 0.615 ± 0.034 |
| PRLAPLTLLPPS | 0.7051 ± 0.0027 |
| PRLPPPPHPSRP | 0.698 ± 0.031 |
| PRNTPPRRAPTR | 0.6485 ± 0.0031 |
